First the molecules themselves.
T1: human GIP receptor (human) (UniProt P48546)
T1 sequence (looked up): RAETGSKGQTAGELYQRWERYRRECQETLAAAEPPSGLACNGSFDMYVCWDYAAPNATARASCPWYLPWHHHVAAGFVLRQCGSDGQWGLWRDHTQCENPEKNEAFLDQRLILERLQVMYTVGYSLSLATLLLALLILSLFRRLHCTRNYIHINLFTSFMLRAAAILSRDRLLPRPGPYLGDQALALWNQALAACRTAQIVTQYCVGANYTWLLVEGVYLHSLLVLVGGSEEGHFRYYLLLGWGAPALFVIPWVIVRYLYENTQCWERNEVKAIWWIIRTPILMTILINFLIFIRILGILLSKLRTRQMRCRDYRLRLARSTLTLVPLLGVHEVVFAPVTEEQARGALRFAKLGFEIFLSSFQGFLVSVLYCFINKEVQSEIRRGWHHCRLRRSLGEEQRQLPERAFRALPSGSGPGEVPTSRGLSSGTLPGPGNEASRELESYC

B1: Example 923 (peptide)
chain: YXQGTFTSDXSQXLDKKAQXAFIEYLIEXGPSSGAPPPSGS
modifications: non-natural residues; C18 diacid-e-γGlu-e on Lys; C-terminal amide; synthetic construct; SITE 2: note = 2-Aminoisobutyric Acid; SITE 10: note = 3-(4-Pyridyl)-L-alanine; SITE 13: note = alpha-methyl-leucine; SITE 17: note = Lysine is chemically modified through conjugation of the epsilon-amino group of the Lysine side chain with D-Glutamic acid-(gamma-Glu)-D-Glutamic
B2: Example 915 (peptide)
chain: B1 chain with Q12K
modifications: non-natural residues, acylated Lys, C-terminal amide; synthetic construct; SITE 2: note = 2-Aminoisobutyric Acid; SITE 10: note = 3-(4-Pyridyl)-L-alanine; SITE 13: note = alpha-methyl-leucine; SITE 17: note = Lysine is chemically modified through conjugation of the epsilon-amino group of the Lysine side chain with (2-[2-(2-Amino-ethoxy)-ethoxy]-acetyl)
B3: Example 948 (peptide)
chain: B1 chain with Y25X, X29G
modifications: Aib, 4Pal, Me4Pal, alpha-methyl-Leu, lipidated Lys, amide; synthetic construct; SITE 2: note = 2-Aminoisobutyric Acid; SITE 10: note = 3-(4-Pyridyl)-L-alanine; SITE 13: note = alpha-methyl-leucine; SITE 17: note = Lysine is chemically modified through conjugation of the epsilon-amino group of the Lysine side chain with (2-[2-(2-Amino-ethoxy)-ethoxy]-acetyl)
B4: Example 914 (peptide)
chain: B1 chain with Q12K, Y25X
modifications: Aib, 4Pal, αMeL, Me4Pal; acylated Lys; C-terminal amide; synthetic construct; SITE 2: note = 2-Aminoisobutyric Acid; SITE 10: note = 3-(4-Pyridyl)-L-alanine; SITE 13: note = alpha-methyl-leucine; SITE 17: note = Lysine is chemically modified through conjugation of the epsilon-amino group of the Lysine side chain with (2-[2-(2-Amino-ethoxy)-ethoxy]-acetyl)
B5: Example 951 (peptide)
chain: B1 chain with Y25X, X29G
modifications: Aib, 4Pal, Me4Pal, αMeL; lipidated Lys; C-terminal amide; synthetic construct; SITE 2: note = 2-Aminoisobutyric Acid; SITE 10: note = 3-(4-Pyridyl)-L-alanine; SITE 13: note = alpha-methyl-leucine; SITE 17: note = Lysine is chemically modified through conjugation of the epsilon-amino group of the Lysine side chain with (gamma-Glu)2-CO-(CH2)16-CO2H; SITE 20:
B6: Example 953 (peptide)
chain: B1 chain with Q12R, Y25X, X29G
modifications: Aib, 4Pal, αMeL, Me4Pal; lipidated Lys; C-terminal amide; synthetic construct; SITE 2: note = 2-Aminoisobutyric Acid; SITE 10: note = 3-(4-Pyridyl)-L-alanine; SITE 13: note = alpha-methyl-leucine; SITE 17: note = Lysine is chemically modified through conjugation of the epsilon-amino group of the Lysine side chain with (gamma-Glu)2-CO-(CH2)16-CO2H; SITE 20:
B7: Example 949 (peptide)
chain: B1 chain with Q12X, Y25X, X29G
modifications: Aib, 4Pal, Orn, Me4Pal; acylated lysine; amide; synthetic construct; SITE 2: note = 2-Aminoisobutyric Acid; SITE 10: note = 3-(4-Pyridyl)-L-alanine; SITE 12: note = L-ornithine; SITE 13: note = alpha-methyl-leucine; SITE 17: note = Lysine is chemically modified through conjugation of the epsilon-amino group of the Lysine side chain with (2-[2-(2-
B8: Example 952 (peptide)
chain: B1 chain with Q12X, Y25X, X29G
modifications: acylated Lys, C-terminal amide, non-natural residues; synthetic construct; SITE 2: note = 2-Aminoisobutyric Acid; SITE 10: note = 3-(4-Pyridyl)-L-alanine; SITE 12: note = L-ornithine; SITE 13: note = alpha-methyl-leucine; SITE 17: note = Lysine is chemically modified through conjugation of the epsilon-amino group of the Lysine side chain with (gamma-Gl)
B9: Example 922 (peptide)
chain: B1 chain
modifications: Lys acylated γGlu-C18 diacid; non-natural residues; C-amide; synthetic construct; SITE 2: note = 2-Aminoisobutyric Acid; SITE 10: note = 3-(4-Pyridyl)-L-alanine; SITE 13: note = alpha-methyl-leucine; SITE 17: note = Lysine is chemically modified through conjugation of the epsilon-amino group of the Lysine side chain with (gamma-Glu)-(D-Glutamic acid)2-CO-(CH2)
B10: Example 919 (peptide)
chain: B1 chain with G40E, S41E
modifications: non-natural residues; lipidated Lys; D-Glu; synthetic construct; SITE 2: note = 2-Aminoisobutyric Acid; SITE 10: note = 3-(4-Pyridyl)-L-alanine; SITE 13: note = alpha-methyl-leucine; SITE 17: note = Lysine is chemically modified through conjugation of the epsilon-amino group of the Lysine side chain with (2-[2-(2-Amino-ethoxy)-ethoxy]-acetyl)
B11: Example 932 (peptide)
chain: B1 chain with K16X, Y25X, I27L, X29G
modifications: non-natural residues; Lys acylated C18 diacid; C-terminal amide; synthetic construct; SITE 2: note = 2-Aminoisobutyric Acid; SITE 10: note = 3-(4-Pyridyl)-L-alanine; SITE 13: note = alpha-methyl-leucine; SITE 16: note = L-ornithine; SITE 17: note = Lysine is chemically modified through conjugation of the epsilon-amino group of the Lysine side chain with (2-[2-(2-
B12: Example 920 (peptide)
chain: B1 chain
modifications: non-natural residues; C18 diacid-γGlu-e on Lys; C-terminal amide; synthetic construct; SITE 2: note = 2-Aminoisobutyric Acid; SITE 10: note = 3-(4-Pyridyl)-L-alanine; SITE 13: note = alpha-methyl-leucine; SITE 17: note = Lysine is chemically modified through conjugation of the epsilon-amino group of the Lysine side chain with D-Glutamic acid-(gamma-Glu)-CO-(CH2)16
B13: Example 924 (peptide)
chain: YXQGTFTSDXSQXLDKKAQXAFIEYLIEXGPSSGAPPPSGSE
modifications: C-terminal amide; lysine acylated with γ-Glu-C18 diacid; synthetic construct; SITE 2: note = 2-Aminoisobutyric Acid; SITE 10: note = 3-(4-Pyridyl)-L-alanine; SITE 13: note = alpha-methyl-leucine; SITE 17: note = Lysine is chemically modified through conjugation of the epsilon-amino group of the Lysine side chain with D-Glutamic acid-(gamma-Glu)-CO-(CH2)16
B14: Example 926 (peptide)
chain: B13 chain
modifications: γGlu-C18 diacid on Lys; non-natural residues; amide; synthetic construct; SITE 2: note = 2-Aminoisobutyric Acid; SITE 10: note = 3-(4-Pyridyl)-L-alanine; SITE 13: note = alpha-methyl-leucine; SITE 17: note = Lysine is chemically modified through conjugation of the epsilon-amino group of the Lysine side chain with (gamma-Glu)-(D-Glutamic acid)2-CO-(CH2)
B15: Example 925 (peptide)
chain: B13 chain
modifications: acylated lysine γGlu-C18 diacid; non-natural residues; C-terminal amide; synthetic construct; SITE 2: note = 2-Aminoisobutyric Acid; SITE 10: note = 3-(4-Pyridyl)-L-alanine; SITE 13: note = alpha-methyl-leucine; SITE 17: note = Lysine is chemically modified through conjugation of the epsilon-amino group of the Lysine side chain with (D-Glutamic acid)2-(gamma-Glu)-CO-(CH2)
B16: Example 927 (peptide)
chain: B13 chain
modifications: Aib, 4Pal, Me4Pal, alpha-methyl-Leu, lipidated Lys, amide; synthetic construct; SITE 2: note = 2-Aminoisobutyric Acid; SITE 10: note = 3-(4-Pyridyl)-L-alanine; SITE 13: note = alpha-methyl-leucine; SITE 17: note = Lysine is chemically modified through conjugation of the epsilon-amino group of the Lysine side chain with D-Glutamic acid-(gamma-Glu)-D-Glutamic
B17: Example 91 (peptide)
chain: YXQGTFTSDFSXXLDKKAQXAFIEYLLAGGPSSGAPPPSGEX
modifications: synthetic construct; SITE 2: note = 2-Aminoisobutyric Acid; SITE 12: note = L-ornithine; SITE 13: note = alpha-methyl-leucine; SITE 17: note = Lysine is chemically modified through conjugation of the epsilon-amino group of the Lysine side chain with (2-[2-(2-Amino-ethoxy)-ethoxy]-acetyl)-(gamma-Glu)

Numbering of substitutions follows the chain as printed.

This is an account of results in patent publication US20240270821A1, “GIP/GLP1/GCG TRI-RECEPTOR AGONISTS AND USES THEREOF” (priority 2023, published 2024).

The target in one test is T1, human GIP receptor (human). In words: cell-based or functional assay.
The molecule B1 showed a cAMP Rel EC50 (1% HSA) of 18.5 nM.
Same read-out and setting: under B2 stands 15.3 nM; under B3, 22.9 nM; under B4, 5.94 nM.
Take B5: the cAMP Rel EC50, nM (1% HSA) stood at 18.2 nM.
For the molecule B6, the cAMP Rel EC50, nM (1% HSA) turned out to be 10.9 nM.
On the same count and under the same terms, as for B7, the figure is 26 nM.
In the case of B8, the cAMP Rel EC50, nM (1% HSA) amounted to 16.6 nM.
For B9, the cAMP Rel EC50 (1% HSA) is 6.39 nM.
On the same count and under the same terms, under B10 stands 25.8 nM; under B11, 25 nM; under B12, 9.05 nM.
The same measure, in the same setting: as for B13, the figure is 15.7 nM.
The same measure, in the same setting: as for B14, the figure is 13.5 nM; as for B15, 23 nM; as for B16, 22.2 nM.
Take B17: the Relative cAMP EC50 was determined as 0.243 nM and the cAMP Rel EC50, nM (in the presence of 1% HSA) amounted to 23.9 nM.

For a further test, the target named is hGLP-1R (Homo sapiens, UniProt P43220). In words: cell-based or functional assay.
Chain of hGLP-1R (P43220 24-463): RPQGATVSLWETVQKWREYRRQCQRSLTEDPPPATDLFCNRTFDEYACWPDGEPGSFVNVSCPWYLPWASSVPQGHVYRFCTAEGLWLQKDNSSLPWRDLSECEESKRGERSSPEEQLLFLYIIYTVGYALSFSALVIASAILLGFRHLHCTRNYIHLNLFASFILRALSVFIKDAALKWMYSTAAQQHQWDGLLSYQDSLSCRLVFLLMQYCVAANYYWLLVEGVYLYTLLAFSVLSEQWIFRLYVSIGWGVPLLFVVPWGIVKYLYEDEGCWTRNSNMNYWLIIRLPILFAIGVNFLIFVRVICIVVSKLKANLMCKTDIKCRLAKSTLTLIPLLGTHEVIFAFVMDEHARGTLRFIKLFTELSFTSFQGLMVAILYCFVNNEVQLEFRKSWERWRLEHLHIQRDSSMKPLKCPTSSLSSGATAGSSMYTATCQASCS
As to B1, the cAMP Rel EC50 (1% HSA) came out at 870 nM.
As for B2, the cAMP Rel EC50 (1% HSA) amounted to 226 nM.
The same measure, in the same setting: under B3 stands 304 nM; under B4, 91.7 nM.
Molecule B5 came in with a cAMP Rel EC50, nM (1% HSA) of 382 nM.
On the same count and under the same terms, under B6 stands 347 nM; under B7, 721 nM; under B8, 439 nM.
The molecule B9 showed a cAMP Rel EC50 (1% HSA) of 357 nM.
The same measure, in the same setting: as for B10, the figure is 454 nM; as for B11, 249 nM; as for B12, 322 nM.
The same measure, in the same setting: under B13 stands 402 nM; under B14, 600 nM; under B15, 708 nM.
On the same count and under the same terms, under B16 stands 584 nM.
With B17, the Relative cAMP EC50 was found to be 3.39 nM and the cAMP Rel EC50, nM (in the presence of 1% HSA) was 356 nM.

The target in a further test is human glucagon receptor (human) (UniProt P47871). As to the kind of experiment: cell-based or functional assay.
Chain of human glucagon receptor (human) (P47871 26-477): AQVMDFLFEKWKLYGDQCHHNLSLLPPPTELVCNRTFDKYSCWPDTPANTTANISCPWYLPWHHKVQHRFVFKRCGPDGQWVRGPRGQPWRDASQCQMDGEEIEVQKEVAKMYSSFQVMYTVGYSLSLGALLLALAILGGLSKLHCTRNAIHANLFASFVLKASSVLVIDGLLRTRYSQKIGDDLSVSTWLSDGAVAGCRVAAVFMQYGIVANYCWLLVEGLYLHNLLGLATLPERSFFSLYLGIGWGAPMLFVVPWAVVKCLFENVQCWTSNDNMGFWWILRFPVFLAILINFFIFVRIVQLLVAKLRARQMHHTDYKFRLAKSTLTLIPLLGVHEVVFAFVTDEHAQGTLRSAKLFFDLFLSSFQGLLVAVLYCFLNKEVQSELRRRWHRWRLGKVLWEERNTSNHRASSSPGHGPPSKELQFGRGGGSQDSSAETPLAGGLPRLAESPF
B1 had a cAMP Rel EC50 (1% HSA) of 1840 nM.
Still for that read-out and setting: under B2 stands 174 nM.
On the same count and under the same terms, as for B3, the figure is 537 nM; as for B4, 983 nM.
Regarding B5, the cAMP Rel EC50, nM (1% HSA) was found to be 657 nM.
Still for that read-out and setting: as for B6, the figure is 275 nM; as for B7, 317 nM; as for B8, 266 nM.
In turn, B9 gave a cAMP Rel EC50 (1% HSA) of 1170 nM.
Still for that read-out and setting: as for B10, the figure is 467 nM; as for B11, 513 nM.
Still for that read-out and setting: as for B12, the figure is 1090 nM; as for B13, 910 nM; as for B14, 1380 nM.
Still for that read-out and setting: under B15 stands 2500 nM; under B16, 1210 nM.
For B17, the Relative cAMP EC50 came to 9.13 nM and the cAMP Rel EC50, nM (in the presence of 1% HSA) was found to be 1200 nM.
